± gives the uncertainty stated by the source.
Assay: self-splicing fitness, log relative to wild type (ln ratio); higher = more splicing; Tetrahymena group I intron in knt gene, E. coli kanamycin selection, DiMSum; sequences stand for … in CUCUCU…GGAGGGAAAAGUUAUCAGGCAUGCACCUGGUAGCUAGUCUUUAAACCAAUAGAUUGCAUCGGUUUAAAAGGCAAGACCGUCAAAUUGCGGGAAAGGGGUCAACAGCCGUUCAGUACCAAGUCUCAGGGGAAACUUUGAGAUGGCCUUGCAAAGGGUAUGGUAAUAAGCUGACGGACAUGGUCCUAACCACGCAGCCAAGUCCUAAGUCAACAGAUCUUCUGUUGAUAUGGAUGCAGUUCACAGACUAAAUGUCGGUCGGGGAAGAUGUAUUCUUCUCAUAAGAUAUAGUCGGACCUCUCCUUAAUGGGAGCUAGCGGAUGAAGUGAUGCAACACUGGAGCCGCUGGGAACUAAUUUGUAUGCGAAAGUAUAUUGAUUAGUUUUGGAGUACUCGUGGUCG
Summary of the method: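 Library with all eight P1ex-region intron nucleotides randomised, intron inside the knt kanamycin-resistance gene on pET-22b(+), in E. coli BL21(DE3). Cells grew overnight at 37°C or 30°C on LB agar with or without 25 μg/mL kanamycin (plus 100 μg/mL carbenicillin, 50 μM IPTG, 0.2% rhamnose), in six replicate transformations. Pooled colonies were amplicon-sequenced on Illumina HiSeq 2500. DiMSum fitness is the error-weighted combination of wild-type-normalised replicate fold changes, kanamycin versus none.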

Row | Sequence | self-splicing fitness (ln) (30 °C) | self-splicing fitness (ln) (37 °C)
1 | GCCGAGCAAUAUUACGUGCA | -2.31 ± 0.25 | -2.24 ± 0.18
2 | CUGAAGCAAUAUUACGGCAA | -3.04 ± 0.2 | -1.21 ± 0.2
3 | ACCGAGCAAUAUUACGUCCG | -4.36 ± 0.24 | -1.5 ± 0.14
4 | ACUUAGCAAUAUUACGAGAU | -2.61 ± 0.2 | -2.95 ± 0.24
5 | GUCGAGCAAUAUUACGAGAC |  | 0.237 ± 0.43
6 | UUCGAGCAAUAUUACGUGAG | -1.12 ± 0.067 | -0.0842 ± 0.11
7 | GCAAAGCAAUAUUACGUGUA | -0.807 ± 0.071 | -0.701 ± 0.074
8 | UGAUAGCAAUAUUACGGGCG | -0.568 ± 0.099 | 0.157 ± 0.1
9 | CACGAGCAAUAUUACGGGGA | -3.15 ± 0.12 | -2.51 ± 0.13
10 | GAACAGCAAUAUUACGACCA | -0.754 ± 0.12 | -0.113 ± 0.12
11 | UGGAAGCAAUAUUACGGGAU | -1.89 ± 0.17 | -2.46 ± 0.28
12 | UGCUAGCAAUAUUACGCGCA | -1.97 ± 0.23 | -0.803 ± 0.2
13 | ACGUAGCAAUAUUACGACCC | -0.864 ± 0.19 | 0.196 ± 0.22
14 | UAGAAGCAAUAUUACGAGAC | -2.67 ± 0.35 | -1.99 ± 0.3
15 | AGACAGCAAUAUUACGACUC | -2.28 ± 0.18 | -0.623 ± 0.2
16 | GGCCAGCAAUAUUACGCGGC | -3.46 ± 0.24 | 
17 | AUGAAGCAAUAUUACGGGAG | -1.71 ± 0.098 | -1.16 ± 0.11
18 | CUAUAGCAAUAUUACGCCUG | -0.141 ± 0.15 | -0.439 ± 0.14
19 | AUACAGCAAUAUUACGUGCA | -1.01 ± 0.083 | -0.648 ± 0.085
20 | GUAGAGCAAUAUUACGCAGG | -1.51 ± 0.15 | -1.59 ± 0.15
21 | AAGCAGCAAUAUUACGCGAC | -0.688 ± 0.22 | -1.95 ± 0.25
22 | ACGAAGCAAUAUUACGGCAU | -0.981 ± 0.1 | 0.219 ± 0.11
23 | GACGAGCAAUAUUACGAUCG | -2.3 ± 0.23 | -2.03 ± 0.19
24 | GGCAAGCAAUAUUACGAUCC | -1.31 ± 0.22 | -0.615 ± 0.27
25 | GCUCAGCAAUAUUACGUGGA | -1.91 ± 0.1 | -1.63 ± 0.12
26 | GACCAGCAAUAUUACGCUAU | -1.28 ± 0.074 | 0.126 ± 0.082

Row | Sequence | self-splicing fitness (ln) (30 °C) | self-splicing fitness (ln) (37 °C)
27 | GGCCAGCAAUAUUACGGUAA | -0.188 ± 0.053 | 0.0838 ± 0.061
28 | ACACAGCAAUAUUACGAUUC | -1.96 ± 0.049 | -1.32 ± 0.072
29 | ACGAAGCAAUAUUACGUCAA | -3.35 ± 0.17 | -3.51 ± 0.22
30 | GAAGAGCAAUAUUACGCCCU | -2.24 ± 0.22 | -1.38 ± 0.31
31 | CUCGAGCAAUAUUACGGAUC |  | 0.135 ± 0.27
32 | AGUAAGCAAUAUUACGGGGU | -3.24 ± 0.22 | -2.46 ± 0.26
33 | UACAAGCAAUAUUACGGAGC | -3.08 ± 0.21 | -2.78 ± 0.34
34 | UGCAAGCAAUAUUACGACGA | -0.804 ± 0.074 | 0.648 ± 0.087
35 | UUCAAGCAAUAUUACGUCGG | -0.722 ± 0.067 | -0.516 ± 0.081
36 | CCCGAGCAAUAUUACGCAGU | -2.82 ± 0.16 | -2.64 ± 0.18
37 | GCUAAGCAAUAUUACGCCUU | -1.43 ± 0.11 | -0.0502 ± 0.14
38 | AUAUAGCAAUAUUACGUGGA | -3.57 ± 0.27 | -3.04 ± 0.26
39 | GGUAAGCAAUAUUACGAAUG | -2.23 ± 0.29 | -2.81 ± 0.36
40 | ACAGAGCAAUAUUACGAGAA | -2.03 ± 0.45 | 
41 | CUAUAGCAAUAUUACGCGCU | -4.04 ± 0.36 | -2.61 ± 0.41
42 | ACCAAGCAAUAUUACGCGCC | -1.35 ± 0.11 | 0.198 ± 0.14
43 | CUUUAGCAAUAUUACGAGGA | -2.59 ± 0.32 | -3.02 ± 0.4
44 | ACCAAGCAAUAUUACGGUCC | -2.8 ± 0.12 | -1.07 ± 0.12
45 | AUCGAGCAAUAUUACGAUCU | -1.58 ± 0.086 | -0.957 ± 0.08
46 | CGAUAGCAAUAUUACGGAAU | -3.23 ± 0.16 | -2.01 ± 0.2
47 | GACAAGCAAUAUUACGAAGG | -4.06 ± 0.19 | -2.27 ± 0.19
48 | AUGUAGCAAUAUUACGUAGC | -2.56 ± 0.18 | -2.43 ± 0.29
49 | CGACAGCAAUAUUACGUCGG | -1.83 ± 0.11 | -1.44 ± 0.15
50 | CUCAAGCAAUAUUACGCUGU | -3.74 ± 0.21 | -1.59 ± 0.23
51 | AGAUAGCAAUAUUACGUUGU | -2.26 ± 0.08 | -2.39 ± 0.11
52 | CCGUAGCAAUAUUACGGCGA | -2.54 ± 0.21 | -2.62 ± 0.25

Row | Sequence | self-splicing fitness (ln) (30 °C) | self-splicing fitness (ln) (37 °C)
53 | CACGAGCAAUAUUACGUGCU | -2.25 ± 0.12 | -2.99 ± 0.22
54 | CGCCAGCAAUAUUACGAUUC | -4.81 ± 0.46 | -3.22 ± 0.35
55 | GUCUAGCAAUAUUACGGAGC | -1.04 ± 0.15 | -1.02 ± 0.18
56 | GUAGAGCAAUAUUACGUUGC | -4.29 ± 0.3 | -3.11 ± 0.24
57 | GCAUAGCAAUAUUACGCUCC | -1.61 ± 0.17 | -1.94 ± 0.31
58 | ACCUAGCAAUAUUACGAAUA | -2.75 ± 0.15 | -2.94 ± 0.18
59 | CACGAGCAAUAUUACGAAUA | -2.08 ± 0.12 | -2.23 ± 0.16
60 | UAAAAGCAAUAUUACGCGAC | -3.73 ± 0.33 | -2.64 ± 0.24
61 | CUCAAGCAAUAUUACGGUCU | -3.13 ± 0.16 | -3.56 ± 0.39
62 | UUAGAGCAAUAUUACGGUCA | -1.7 ± 0.15 | -1.34 ± 0.14
63 | GGCGAGCAAUAUUACGCUGA | -1.82 ± 0.2 | -2.12 ± 0.18
64 | AUCGAGCAAUAUUACGCCCG | -3.48 ± 0.36 | -0.807 ± 0.32
65 | CCUAAGCAAUAUUACGGUAA | -2.48 ± 0.24 | -2.73 ± 0.25
66 | AUCUAGCAAUAUUACGUCGC | -3.06 ± 0.47 | -1.86 ± 0.49
67 | ACGGAGCAAUAUUACGAGAU | -3.66 ± 0.21 | 0.0618 ± 0.16
68 | UAGUAGCAAUAUUACGACAC |  | -1.67 ± 0.26
69 | UCAAAGCAAUAUUACGGGUA | -0.981 ± 0.096 | 0.505 ± 0.093
70 | UAACAGCAAUAUUACGACGC | -2.37 ± 0.12 | -1.76 ± 0.16
71 | CAGAAGCAAUAUUACGCUAA | -4.46 ± 0.42 | -1.97 ± 0.26
72 | AUAAAGCAAUAUUACGAUGG | -2.15 ± 0.13 | -1.03 ± 0.18
73 | AUUAAGCAAUAUUACGACAC | -0.804 ± 0.13 | -0.46 ± 0.14
74 | GCGCAGCAAUAUUACGUCGU | -3.02 ± 0.12 | -2.75 ± 0.18
75 | GGGGAGCAAUAUUACGGCGG |  | -0.394 ± 0.41
76 | CUGCAGCAAUAUUACGAGUA | -2.85 ± 0.23 | -2.97 ± 0.28
77 | AAAUAGCAAUAUUACGCGCA | -0.264 ± 0.092 | -0.103 ± 0.11

— the supplement of paper PMC7877785
